The results in this text go back to the supplement of paper PMC11811203.

Sequences and labels used below:
B1: THAP1; numbered along this chain (parent)
chain: MVQSCSAYGCKNRYDKDKPVSFHKFPLTRPSLCKEWEAAVRRKNFKPTKYSSICSEHFTPDCFKRECNNKLLKENAVPTIFLCTEPHDKKEDLLEPQEQLPPPPLPPPVSQVDAAIGLLMPPLQTPVNLSVFCDHNYTVEDTMHQRKRIHQLEQQVEKLRKKLKTAQQRCRRQERQLEKLKEVVHFQKEKDDVSERGYVILPNDYFEIVEVPA

In this data set the parent is B1. As to the kind of experiment: THAP1 transcriptional activity (GFP+/GFP- enrichment relative to wild-type constructs) (ratio to WT); higher = more THAP1 activity (PSMB5 reporter activation). Conditions: with PSMB5 promoter-GFP reporter. On the procedure:
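Deep mutational scan of human THAP1. Site-saturation single amino acid variant library (residues 2-213) was expressed by lentivirus at MOI ~0.3 in THAP1-knockout HEK-293T cells carrying an endogenous PSMB5 promoter-GFP knock-in reporter. Five days post-transduction, BFP+ cells were FACS-sorted into GFP dim and GFP bright populations and variants were counted by Illumina sequencing. Activity is the GFP-bright/GFP-dim read fold change, mean of 2 replicates, divided by the mean fold change of wild-type (synonymous) constructs in the same screen pool; WT = 1.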
As to MVQSCSAYGCKNRYDKDKPVSFHKFPLTRPSLCKEWEAAVRRKNFKPTKYSSICSEHFTPDCFKRECNNKLLKENAVPTIFLCTEPHDKKEDLLEPQEQLPPPPLPPPVSQKDAAIGLLMPPLQTPVNLSVFCDHNYTVEDTMHQRKRIHQLEQQVEKLRKKLKTAQQRCRRQERQLEKLKEVVHFQKEKDDVSERGYVILPNDYFEIVEVPA [V112K], the THAP1 transcriptional activity stood at 1.74.
Regarding MVQSCSAYGCKNRYDKDKPVSFHKFPLTRPSLCKEWEAAVRRKNFKPTKYSSICSEHFTPDCFKRECNNKLLKVNAVPTIFLCTEPHDKKEDLLEPQEQLPPPPLPPPVSQVDAAIGLLMPPLQTPVNLSVFCDHNYTVEDTMHQRKRIHQLEQQVEKLRKKLKTAQQRCRRQERQLEKLKEVVHFQKEKDDVSERGYVILPNDYFEIVEVPA [E74V], the THAP1 transcriptional activity was found to be 0.618.
The value for MVQSCSAYGCKNRYDKDKPVSFHKFPLTRPSLCKEWEAAVRRKNFKPTKYSSICSEHFTPDCFKRECNNKLLKMNAVPTIFLCTEPHDKKEDLLEPQEQLPPPPLPPPVSQVDAAIGLLMPPLQTPVNLSVFCDHNYTVEDTMHQRKRIHQLEQQVEKLRKKLKTAQQRCRRQERQLEKLKEVVHFQKEKDDVSERGYVILPNDYFEIVEVPA [E74M] was 0.293; that for MVQSCSAYGCKNRYDKDKPVSFHKFPLTRPSLCKEWEAAVRRKNFKPTKYSSIDSEHFTPDCFKRECNNKLLKENAVPTIFLCTEPHDKKEDLLEPQEQLPPPPLPPPVSQVDAAIGLLMPPLQTPVNLSVFCDHNYTVEDTMHQRKRIHQLEQQVEKLRKKLKTAQQRCRRQERQLEKLKEVVHFQKEKDDVSERGYVILPNDYFEIVEVPA [C54D] was 0.178.
For MVQSCSAYGCKNRYDKDKPVSFHKFPLTRPSLCKEWEAAVRRKNFKPTKYSSICSEHFTPDCFKRECNNKLLKENAVPTIFLCTEPHDKKEDLLEPQEQLPPPPLPPPVSQVDAAIGLLMPPLQTPVNLSVFCDHNYTVEDCMHQRKRIHQLEQQVEKLRKKLKTAQQRCRRQERQLEKLKEVVHFQKEKDDVSERGYVILPNDYFEIVEVPA [T142C], the THAP1 transcriptional activity is 0.803.
In the case of MVQSCSAYGCKNRYDKDKPVSFHKFPLTRPSLCKEWEAAVRRKNFKPTKYSSICSEHFTPNCFKRECNNKLLKENAVPTIFLCTEPHDKKEDLLEPQEQLPPPPLPPPVSQVDAAIGLLMPPLQTPVNLSVFCDHNYTVEDTMHQRKRIHQLEQQVEKLRKKLKTAQQRCRRQERQLEKLKEVVHFQKEKDDVSERGYVILPNDYFEIVEVPA [D61N], the THAP1 transcriptional activity was determined as 0.472.
Regarding MVQSCSAYGCKNRYDKDKPVSFHKFPLTRPSLCKEWEAAVRRKNFKPTKYSSICSEHFTPDCFKRECNNKLLKENAVPTIFLCTEPHDKKEDLLEPQEQLPPPPLPPPVSQVDAAIGLLMPPLQTPVNLSVFCDHNYTVEDTMHQRKRIHQLEQQVEKLRKMLKTAQQRCRRQERQLEKLKEVVHFQKEKDDVSERGYVILPNDYFEIVEVPA [K162M], the THAP1 transcriptional activity was found to be 0.318.
The value for MVQSCSAFGCKNRYDKDKPVSFHKFPLTRPSLCKEWEAAVRRKNFKPTKYSSICSEHFTPDCFKRECNNKLLKENAVPTIFLCTEPHDKKEDLLEPQEQLPPPPLPPPVSQVDAAIGLLMPPLQTPVNLSVFCDHNYTVEDTMHQRKRIHQLEQQVEKLRKKLKTAQQRCRRQERQLEKLKEVVHFQKEKDDVSERGYVILPNDYFEIVEVPA [Y8F] was 0.667; that for MVQSCSAYGCKNRYDKDKPVSFHKFPLTRPSLCKEWEAAVRRKNFKPTKYSSICSEHFTPDCFKRECNNKLLKENAVPTIFLCTEPHDKKEDLLEPQEQLPPPPLPPPVSQVDAAIGLLMPPLQTPVNLSVFCDHNYTVEDTMHQRKRIHQLEQQVEKLRKKLKTAQQRCRRQGRQLEKLKEVVHFQKEKDDVSERGYVILPNDYFEIVEVPA [E174G] was 0.535; that for MVQSCSAYGCKNRYDKDKPVSFHKFPLTRPSLCKEWEAAVRRKNFKPTKYSSICSRHFTPDCFKRECNNKLLKENAVPTIFLCTEPHDKKEDLLEPQEQLPPPPLPPPVSQVDAAIGLLMPPLQTPVNLSVFCDHNYTVEDTMHQRKRIHQLEQQVEKLRKKLKTAQQRCRRQERQLEKLKEVVHFQKEKDDVSERGYVILPNDYFEIVEVPA [E56R] was 0.389.
For the variant MVQSCSAYGCKNRYDKDKPVSFHKFPLTRPSLCKEWEAAVRRKNFKPTKYSSICSEHFTPDCFKRECNNKLLKENAVPTIFLCTEPHDKKEDLLEPQEQLGPPPLPPPVSQVDAAIGLLMPPLQTPVNLSVFCDHNYTVEDTMHQRKRIHQLEQQVEKLRKKLKTAQQRCRRQERQLEKLKEVVHFQKEKDDVSERGYVILPNDYFEIVEVPA [P101G], the THAP1 transcriptional activity was determined as 1.27.
Regarding MVQSCSAYGCKNRYDKDKPVSFHKFPLTRPSLCKVWEAAVRRKNFKPTKYSSICSEHFTPDCFKRECNNKLLKENAVPTIFLCTEPHDKKEDLLEPQEQLPPPPLPPPVSQVDAAIGLLMPPLQTPVNLSVFCDHNYTVEDTMHQRKRIHQLEQQVEKLRKKLKTAQQRCRRQERQLEKLKEVVHFQKEKDDVSERGYVILPNDYFEIVEVPA [E35V], the THAP1 transcriptional activity was found to be 0.479.
As for MVQSCSAYGCKNRYDKDKPVSFHKFPLTRPSLCKEWEAAVRRKNFKPTAYSSICSEHFTPDCFKRECNNKLLKENAVPTIFLCTEPHDKKEDLLEPQEQLPPPPLPPPVSQVDAAIGLLMPPLQTPVNLSVFCDHNYTVEDTMHQRKRIHQLEQQVEKLRKKLKTAQQRCRRQERQLEKLKEVVHFQKEKDDVSERGYVILPNDYFEIVEVPA [K49A], the THAP1 transcriptional activity amounted to 0.22.
Consider MVQSCSAYGCKNRYDKDKPVSFHKFPLTRPSLCKEWEAAVRRKNFKPTKYSSICSEHFTPDCFKRECNNKLLKENAVPTIFLCTEPHDKMEDLLEPQEQLPPPPLPPPVSQVDAAIGLLMPPLQTPVNLSVFCDHNYTVEDTMHQRKRIHQLEQQVEKLRKKLKTAQQRCRRQERQLEKLKEVVHFQKEKDDVSERGYVILPNDYFEIVEVPA [K90M], for which the THAP1 transcriptional activity stood at 1.03.
For MVQSCSAYGCKNRYDKDKPVSFHKFPLTRPSLCKEWEAAVRRKNFKPTKYSSICSEHFTPDCFKRECNNKLLKENAVPTIFLCTEPHDKIEDLLEPQEQLPPPPLPPPVSQVDAAIGLLMPPLQTPVNLSVFCDHNYTVEDTMHQRKRIHQLEQQVEKLRKKLKTAQQRCRRQERQLEKLKEVVHFQKEKDDVSERGYVILPNDYFEIVEVPA [K90I], the THAP1 transcriptional activity worked out at 1.52.
The result for MVQSCSAYGCKNRYDKDKPVSFHKFPLTRPSLCKEWEAAVRRKNFKPTKYSSICSEHFTPDCFKRECNNKLLKENAVPTIFLCTEPHDKKEDLLEPQEQLPPPPLPPPVSQVDAAIGLLMPPLQTPVNLSLFCDHNYTVEDTMHQRKRIHQLEQQVEKLRKKLKTAQQRCRRQERQLEKLKEVVHFQKEKDDVSERGYVILPNDYFEIVEVPA [V131L] reads 0.533.
With MVQSCSAYGCKNRYDKDKPVSFHKFPLTRPSLCKEWEAAVRRKNFKPTKYSSICSEHFTPDCFKRECNNKLLKENAVPTIFLCTEPHDKKEDLLEPQEQLPPPPLPPGVSQVDAAIGLLMPPLQTPVNLSVFCDHNYTVEDTMHQRKRIHQLEQQVEKLRKKLKTAQQRCRRQERQLEKLKEVVHFQKEKDDVSERGYVILPNDYFEIVEVPA [P108G], the THAP1 transcriptional activity stood at 1.24.
The result for MVQSCSAYGCKNRYDKDKPVSFHKCPLTRPSLCKEWEAAVRRKNFKPTKYSSICSEHFTPDCFKRECNNKLLKENAVPTIFLCTEPHDKKEDLLEPQEQLPPPPLPPPVSQVDAAIGLLMPPLQTPVNLSVFCDHNYTVEDTMHQRKRIHQLEQQVEKLRKKLKTAQQRCRRQERQLEKLKEVVHFQKEKDDVSERGYVILPNDYFEIVEVPA [F25C] reads 0.125.
MVQSCSAYGCKNRYDKDKPVSFHKFPLTRPSLCKEWEAAVRRKNFKPTKYSSICSEHFTPDCFKRECNNKLLKENAVPTIFLCTEPHDKKEDLLEPQEQLPPPPLPPPVSQVDAAIGLLMPPLQTPVNLSVFCDHNYTVEDTMHQRKRIHQLEMQVEKLRKKLKTAQQRCRRQERQLEKLKEVVHFQKEKDDVSERGYVILPNDYFEIVEVPA [Q154M]: the THAP1 transcriptional activity is 1.17.
The value for MVQSCSAYGCKNRYDKDKPVSFHKFPLTRPSLCKEWEAAVRRKNFKPTKYSSICSEHFTPDCFKRECNNKLLKENAVPTIFLCTEPHDKKEDLLEPQEQVPPPPLPPPVSQVDAAIGLLMPPLQTPVNLSVFCDHNYTVEDTMHQRKRIHQLEQQVEKLRKKLKTAQQRCRRQERQLEKLKEVVHFQKEKDDVSERGYVILPNDYFEIVEVPA [L100V] was 1.84; that for MVQSCSAYGCKNRYDKDKPVSFHKFPLTRPSLCKEWEAAVRRKNFKPTKYSSICSEHFTPDCFKRECNNKLLKENAVPTIFLCTEPHDKKEDLLEPQEQLPPPPLPPPVSQVDAAIGLLMPPLQTPVNLSVFCDHNYTVEDTMHQRKRIHQLEQQVEKLRKKLKTAQQRCRRQERQLEKLHEVVHFQKEKDDVSERGYVILPNDYFEIVEVPA [K181H] was 0.478; that for MVQSCSAYGCKNRYDKDKPVSFHKFPLTRPSLCKEWEAAVRRKNFKPTKYSSICSEHFTPDCFKRECNNKLLKENAVPTIFLCTEPHDKKEDLLEPQEQLPPPPLPPPVSQVDAAIGLLMPPLQTPVNLSVFCDHNYTVEDTMHQRKRIHQLEQQVEKLRKKLKTAQQRCRRQERQLEKLKEVVHFQKEKDDVSEWGYVILPNDYFEIVEVPA [R196W] was 0.521.
Consider MVQSCSAYGCKNRYDKDKPVSFHKFPLTRPSLCKEWEAAVRRKNFKPTKYSSICSEHFTPDCFKRECNNKLLKENAVPTIFLCTEPHDKKEDLLEPQEQLPPPPLPPPVSQVDAAIGLLMPPLQTPVNLSVFCDHNYTVEDTMHQRKRIHQLEQQVEKLRKKLKTAQQRCRRQEKQLEKLKEVVHFQKEKDDVSERGYVILPNDYFEIVEVPA [R175K], for which the THAP1 transcriptional activity was found to be 1.17.
The result for MVQSCSAYGCKNRYDKDKPVSFHKFPLTRPSLCKEWEAAVRRKNFKPTKYSSICSEHFTPDCFKRECNNKLLKENAVPTIFLCTEPHDKKEDLLEPQEQLPPPPLPPPDSQVDAAIGLLMPPLQTPVNLSVFCDHNYTVEDTMHQRKRIHQLEQQVEKLRKKLKTAQQRCRRQERQLEKLKEVVHFQKEKDDVSERGYVILPNDYFEIVEVPA [V109D] reads 2.07; that for MVQSCSAYGCKNRYDKDKPVSFHKFPLTRPSLCKEWEAAVRRKNFKPTKYSSICSEIFTPDCFKRECNNKLLKENAVPTIFLCTEPHDKKEDLLEPQEQLPPPPLPPPVSQVDAAIGLLMPPLQTPVNLSVFCDHNYTVEDTMHQRKRIHQLEQQVEKLRKKLKTAQQRCRRQERQLEKLKEVVHFQKEKDDVSERGYVILPNDYFEIVEVPA [H57I], 0.102.
For MVQSCSAYGCKNRYDKDKPVSFHKFPLTRPSLCKEWEAAVRRKNFKPTKYSSICSEHFTPDCFKRECNNKLLKENAVPTIFLCTEPHDKKEDLLEPQEQLPPPPLPPPVSQVDAAIGLLMPPLQTPVNLSVFCDHNYTVEDTMHQRKRIHQLEQQVEKLRKKLKTAQQRCRRGERQLEKLKEVVHFQKEKDDVSERGYVILPNDYFEIVEVPA [Q173G], the THAP1 transcriptional activity came to 0.386.
With MVQSCSAYGCKNRYDKDKPVSFHKFPLTRPSLCKEWEAAVRRKNFKPTKYSSICSEHFTPDCFKRECNNKLCKENAVPTIFLCTEPHDKKEDLLEPQEQLPPPPLPPPVSQVDAAIGLLMPPLQTPVNLSVFCDHNYTVEDTMHQRKRIHQLEQQVEKLRKKLKTAQQRCRRQERQLEKLKEVVHFQKEKDDVSERGYVILPNDYFEIVEVPA [L72C], the THAP1 transcriptional activity came to 0.148.
For MVQSCSAYGCKNRYDKDKPVSFHKFPLTRPSLCKEWEAAVRRKNFKPTKYSSICSEHFTPDCFKRECNNKLLKENAVPTIFLCTEPHDKKEDLLEPQEQLPPPPLPPPVSQVDAAIGLLMPPLQTPVNLSVFCDHNYTVEDTMHQRKRIHQLEQQVEKLRKKLKTAQQRCRRQERQQEKLKEVVHFQKEKDDVSERGYVILPNDYFEIVEVPA [L177Q], the THAP1 transcriptional activity came out at 0.191.
